Measured values: patent publication US20160068605A1
Read-outs that look alike come from different tables or passages of the source.

Columns and labels:
[1] = biological target: IL3RA-PK (CD123 tagged with ProLink) in HEK293 IL3RA-PK/CSF2RB-EA cells (UniProt P26951)
[2] = biological target: IL3RA-PK (CD123 tagged with ProLink) in HEK293 IL3RA-PK/CSF2RB-EA cells (UniProt P26951); remark: listed apart in the source
[3] = biological target: cell-surface CD3 epsilon on primary cynomolgus T cells (cynomolgus monkey) (UniProt Q95LI5); assay: saturation binding by flow cytometry on cynomolgus monkey T cells
cell-surface CD3 epsilon on primary cynomolgus T cells (cynomolgus monkey), sequence (Q95LI5 22-198): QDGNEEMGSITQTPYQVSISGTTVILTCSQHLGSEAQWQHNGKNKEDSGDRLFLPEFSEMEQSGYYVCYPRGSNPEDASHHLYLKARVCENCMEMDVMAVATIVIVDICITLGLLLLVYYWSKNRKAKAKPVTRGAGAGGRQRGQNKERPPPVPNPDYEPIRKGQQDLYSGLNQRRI

[4] = biological target: cell-surface CD3 epsilon on primary human T cells (human) (UniProt P07766); assay: saturation binding by flow cytometry on primary human T cells (Donor 10006)
cell-surface CD3 epsilon on primary human T cells (human), sequence (P07766 23-207): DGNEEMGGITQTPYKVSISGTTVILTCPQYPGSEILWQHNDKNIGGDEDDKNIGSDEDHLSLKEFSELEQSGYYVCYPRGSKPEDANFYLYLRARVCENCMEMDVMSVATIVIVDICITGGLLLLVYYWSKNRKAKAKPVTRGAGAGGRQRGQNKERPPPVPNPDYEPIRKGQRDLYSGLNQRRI

Substance: IL-3 (from UniProt P08700) (ligand)
- EC50 (read off the curve): CD123/CD131 heteromerization (RLU) [1]: 3 ng/mL
- EC50 (read off the curve): CD123/CD131 heteromerization (RLU) [2]: 6 ng/mL

Substance: SP34-2 (antibody)
- Antigen binding sites/cell [3]: 55000 sites/cell
- Kd [3]: 1.4 nM
- Ab binding sites/cell [4]: 60000 sites/cell
- Kd [4]: 4.2 nM
